In assay [1] the target is GST-fusion construct of src.
Assay [2] deals with human EGF receptor (human) (UniProt P00533).
Assay [3] concerns the target chicken pp60^v-src (chicken).
Assay [4] has as its target chicken pp60^v-src (chicken). Nature of the assay: inhibition of transphosphorylation of acid denatured enolase (1 µM) by immobilised pp60^v-src, [γ-32P]-ATP, SDS-PAGE.

As for “peptide Ala-Glu-Glu-Glu-Ile-Tyr-Gly-Glu-Phe-Glu-Ala-Lys-Lys-Lys-Lys”, the Km of phosphorylation of the peptide by the kinase in assay [1] stood at 33 µM. Also, the Km (µM) of phosphorylation of the peptide by the kinase in assay [2] was determined as 34 µM; in assay [3], 32.9 µM. In addition, in assay [4], the Ki came out at 8 µM.

Values taken from patent US6004757.
